Legend:
[1] = biological target: T1, CASK_CAMK domain (residues 1-345) (Mus musculus, UniProt O70589-3 1-345); experiment: SEC-MALS
T1 sequence (looked up): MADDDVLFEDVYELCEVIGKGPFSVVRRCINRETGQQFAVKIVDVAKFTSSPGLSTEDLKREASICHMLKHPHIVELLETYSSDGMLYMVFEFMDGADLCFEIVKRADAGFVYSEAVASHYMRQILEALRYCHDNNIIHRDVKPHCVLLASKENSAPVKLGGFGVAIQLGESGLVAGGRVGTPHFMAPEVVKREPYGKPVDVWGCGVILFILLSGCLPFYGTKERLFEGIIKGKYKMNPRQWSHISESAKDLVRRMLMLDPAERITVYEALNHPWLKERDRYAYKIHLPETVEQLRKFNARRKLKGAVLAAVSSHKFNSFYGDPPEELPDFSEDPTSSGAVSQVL

[2] = biological target: T1, CASK_CAMK domain (residues 1-345); experiment: ITC
[3] = biological target: T2, CASK full-length protein (recombinant) (Mus musculus, UniProt O70589-3 1-897); experiment: ITC
T2 sequence (looked up): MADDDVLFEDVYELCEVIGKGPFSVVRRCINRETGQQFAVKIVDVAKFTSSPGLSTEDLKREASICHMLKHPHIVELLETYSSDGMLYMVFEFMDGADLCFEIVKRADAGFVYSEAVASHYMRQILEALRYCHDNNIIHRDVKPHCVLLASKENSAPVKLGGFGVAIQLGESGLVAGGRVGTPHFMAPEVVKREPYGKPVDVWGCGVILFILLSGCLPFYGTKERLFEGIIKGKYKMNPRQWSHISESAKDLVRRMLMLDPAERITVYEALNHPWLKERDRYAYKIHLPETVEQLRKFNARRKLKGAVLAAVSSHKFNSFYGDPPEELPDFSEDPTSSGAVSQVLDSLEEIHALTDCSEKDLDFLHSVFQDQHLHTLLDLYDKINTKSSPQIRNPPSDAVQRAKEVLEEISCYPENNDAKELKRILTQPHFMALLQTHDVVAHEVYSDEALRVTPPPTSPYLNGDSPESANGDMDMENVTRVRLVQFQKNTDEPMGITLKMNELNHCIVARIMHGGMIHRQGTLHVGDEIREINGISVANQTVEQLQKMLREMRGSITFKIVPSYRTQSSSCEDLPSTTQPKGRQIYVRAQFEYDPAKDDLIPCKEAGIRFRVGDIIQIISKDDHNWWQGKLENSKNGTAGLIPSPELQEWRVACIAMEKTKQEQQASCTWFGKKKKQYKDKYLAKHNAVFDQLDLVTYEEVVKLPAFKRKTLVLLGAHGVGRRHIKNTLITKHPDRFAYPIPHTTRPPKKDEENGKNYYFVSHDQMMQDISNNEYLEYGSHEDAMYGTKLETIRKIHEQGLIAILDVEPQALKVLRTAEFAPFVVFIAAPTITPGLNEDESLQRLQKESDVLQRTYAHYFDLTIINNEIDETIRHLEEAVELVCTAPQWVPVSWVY

B1: Caskin1 extended CID protein (residues 371-466) (domain or fragment, Mus musculus, UniProt Q6P9K8-1 371-466, looked up)
chain: PPEEIWVLRKPFAGGDRSGSLSNVAGGRSTGGHALHAGSEGVKLLATVLSQKSVSESSPGDSPVKPPEGSSGAARSQPPAAHAGQVYGEQPPKKLE
stoichiometry N [1]: ~1
Kd [2]: 940 ± 90 nM

B2: Caskin1_N-terminal (residues 1-674) (domain or fragment)
chain: not shown
Kd [3]: ~760 nM

— publication doi:10.1101/2022.01.16.476467 (bioRxiv, 2022)
